Measured values published in patent US8987192B2, “Potent and selective mediators of cholesterol efflux” (The Regents of the University of California, priority 2006, dated 2015).
Entries after “also recorded” stand apart in the source; their conditions may differ. Where a SMILES comes first, the peptide text is derived from it. Where no end group is shown, it is not given here.

What was measured:
[1] = Pharmacokinetics of iodinated peptide in Sprague-Dawley rats; assay type: in vivo; settings: for Half-live: IP, time interval 0-30 hours
Experimental: An iodinated version of polypeptide of SEQ ID NO:4, which was modified to have a Y residue at the C-terminus, was administered intravenously to Sprague-Dawley rats. The kinetics reflected a biphasic elimination, which is typical of peptides. […] This distribution pattern resembles what has been reported for ApoA-I and HDL. […] (See, FIG. 23).
The bioavailability in percent was calculated from the area under the curve IP as divided by area under the curve IV after adjustment for residual activity and the bioavailability was about 40%.

ABCA1 = ABCA1 (Mus musculus, UniProt P41233); experiment: Cholesterol efflux from [3H]cholesterol-labeled ABCA1-expressing J774 mouse macrophages; assay type: cell-based; set-up: to upregulate cellular ABCA1 protein; endogenous in cells; host or cells: J774 mouse macrophages; settings: macrophages with vs without cAMP; listed as S26>Y
Chain of ABCA1 (P41233 whole entry): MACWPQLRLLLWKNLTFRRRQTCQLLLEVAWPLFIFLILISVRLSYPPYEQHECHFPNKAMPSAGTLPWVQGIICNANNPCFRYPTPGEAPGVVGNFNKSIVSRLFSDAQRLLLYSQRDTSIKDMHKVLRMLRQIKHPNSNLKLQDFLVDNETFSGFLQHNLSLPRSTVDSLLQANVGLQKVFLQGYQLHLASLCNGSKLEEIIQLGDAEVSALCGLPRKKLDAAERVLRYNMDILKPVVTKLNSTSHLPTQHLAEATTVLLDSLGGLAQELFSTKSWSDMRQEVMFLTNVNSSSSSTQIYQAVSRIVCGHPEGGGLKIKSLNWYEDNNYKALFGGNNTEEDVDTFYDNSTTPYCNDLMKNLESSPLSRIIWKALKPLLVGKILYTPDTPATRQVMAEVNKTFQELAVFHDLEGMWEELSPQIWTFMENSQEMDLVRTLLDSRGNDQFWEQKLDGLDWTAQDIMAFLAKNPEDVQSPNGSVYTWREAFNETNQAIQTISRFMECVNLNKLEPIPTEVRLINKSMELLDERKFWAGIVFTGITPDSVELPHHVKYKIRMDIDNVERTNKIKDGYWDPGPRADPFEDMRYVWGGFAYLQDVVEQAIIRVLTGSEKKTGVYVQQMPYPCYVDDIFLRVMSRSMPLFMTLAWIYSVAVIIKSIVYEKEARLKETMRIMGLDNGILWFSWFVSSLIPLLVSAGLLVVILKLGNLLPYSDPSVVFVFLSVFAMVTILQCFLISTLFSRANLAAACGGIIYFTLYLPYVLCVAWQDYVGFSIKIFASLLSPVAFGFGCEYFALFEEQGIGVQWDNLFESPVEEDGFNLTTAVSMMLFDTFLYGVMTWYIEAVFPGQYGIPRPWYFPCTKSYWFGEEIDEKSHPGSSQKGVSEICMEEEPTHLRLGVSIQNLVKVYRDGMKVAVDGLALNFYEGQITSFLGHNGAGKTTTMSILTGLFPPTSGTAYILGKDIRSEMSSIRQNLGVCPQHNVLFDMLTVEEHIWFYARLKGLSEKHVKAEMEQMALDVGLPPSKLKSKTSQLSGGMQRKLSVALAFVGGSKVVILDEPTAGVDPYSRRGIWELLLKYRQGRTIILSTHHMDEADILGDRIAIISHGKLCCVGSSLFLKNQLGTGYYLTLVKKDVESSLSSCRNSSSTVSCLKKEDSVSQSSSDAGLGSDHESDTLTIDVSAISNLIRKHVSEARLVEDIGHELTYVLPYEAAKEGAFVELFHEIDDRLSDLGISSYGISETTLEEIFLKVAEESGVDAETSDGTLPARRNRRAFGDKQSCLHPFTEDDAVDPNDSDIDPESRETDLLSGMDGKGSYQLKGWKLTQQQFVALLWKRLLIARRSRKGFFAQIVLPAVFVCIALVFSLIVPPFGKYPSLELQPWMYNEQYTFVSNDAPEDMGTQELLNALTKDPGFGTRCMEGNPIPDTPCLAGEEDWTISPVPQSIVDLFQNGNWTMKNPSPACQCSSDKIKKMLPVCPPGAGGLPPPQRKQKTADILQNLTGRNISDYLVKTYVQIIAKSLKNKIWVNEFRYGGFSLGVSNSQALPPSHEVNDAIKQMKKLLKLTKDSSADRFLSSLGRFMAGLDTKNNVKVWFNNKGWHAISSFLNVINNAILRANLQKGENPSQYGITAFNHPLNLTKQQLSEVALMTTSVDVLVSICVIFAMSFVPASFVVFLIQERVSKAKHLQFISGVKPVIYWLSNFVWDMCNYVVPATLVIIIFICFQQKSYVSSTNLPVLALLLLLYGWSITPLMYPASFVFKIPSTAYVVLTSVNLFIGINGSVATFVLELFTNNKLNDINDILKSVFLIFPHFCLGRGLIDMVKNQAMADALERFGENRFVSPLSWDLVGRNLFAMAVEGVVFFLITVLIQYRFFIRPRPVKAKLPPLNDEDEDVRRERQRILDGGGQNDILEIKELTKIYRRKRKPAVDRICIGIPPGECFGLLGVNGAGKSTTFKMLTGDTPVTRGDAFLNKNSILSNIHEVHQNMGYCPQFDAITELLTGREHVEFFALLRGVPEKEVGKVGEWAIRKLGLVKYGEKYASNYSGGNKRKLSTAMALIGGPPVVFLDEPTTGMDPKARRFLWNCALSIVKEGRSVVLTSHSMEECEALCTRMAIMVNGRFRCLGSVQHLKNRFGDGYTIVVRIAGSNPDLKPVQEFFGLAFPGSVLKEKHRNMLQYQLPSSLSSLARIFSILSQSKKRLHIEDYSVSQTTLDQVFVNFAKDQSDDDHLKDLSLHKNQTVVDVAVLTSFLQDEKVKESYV
Experimental: In some embodiments, a polypeptide known to mediate cholesterol efflux (e.g., helix 9/10 of Apo A-I) is used to screen for additional mediators of cholesterol efflux in a cell based assay. For example, cell lines in which cholesterol efflux can be enhanced using a cAMP analog that up-regulates ABCA1 protein expression (e.g., J774 macrophages) can conveniently be used to assess the ability of a polypeptide of the present invention to mediate cholesterol efflux. The cells are incubated with labeled cholesterol (e.g., [^3H]cholesterol) under conditions appropriate for cholesterol uptake by the cells. Thus, cAMP or cAMP analogs (e.g., CPT-cAMP) are incubated with the cells for a suitable time before the initiation of cellular cholesterol efflux, i.e., prior to contacting the cells with a test polypeptide. Measurement of labeled cholesterol appearing in the medium is used to determine the cholesterol efflux mediating activity of the test polypeptide.
J774 mouse macrophages labeled with [^3H]cholesterol were treated (20 h) with 22-hydroxycholesterol (10 μM)/cis-retinoic acid (10 μM) to upregulate cellular ABCA1 protein.
Mouse macrophages were labeled with [^3H]cholesterol and treated with a cAMP analog to induce ABCA1 expression. […] Km values were calculated using the Michaelis-Menton equation and GraphPad Prism4 software.
Inverted sequence peptides synthesized with all L-amino acids and all D-amino acids were tested for cholesterol efflux activity using ABCA1 expressing J774 macrophages.
Two peptide analogs were engineered; the first replacing glutamic acid residues (E) at position 8 and 15 with aspartic acid residues (D), i.e., E8, 15>D polypeptides, and the second, replacing E1, 7, 8, 15, 18, 19 with D, i.e., all D (Asp) polypeptide. Cholesterol efflux activity was determined using J774 macrophages treated with and without a cAMP analog to modulate ABCA1 expression.
The impact of the A12>L substitution was also tested for activity, which also expanded non-polar surface area.
1-palmitoyl-2-oleoyl-phosphatidylcholine (POPC) was used to evaluate the cholesterol efflux properties of a formulated polypeptide of the present invention. […] To test cholesterol efflux activity, J774 mouse macrophages were labeled with [^3H]cholesterol and treated with and without cAMP to modulate ABCA1 expression.

[2] = tested on: Apolipoprotein E knock-out mice; experiment: Atherosclerosis in Apolipoprotein E knock-out mice on Western diet, pooled series (Example 19); assay type: in vivo, mouse; settings: 30 mg/kg IP, 21 injections, pooled data of three series
Experimental: The polypeptide of SEQ ID NO:4 and its Y26 analog have been evaluated with respect to ability to inhibit atherosclerosis in Apolipoprotein E knock-out mice. The mice were given Western diet for 18 weeks and then randomized to receive saline, free polypeptide or polypeptide-phospholipid complex. […] The degree of atherosclerosis was then determined in whole aorta and aortic root/sinus. Three experimental series were performed. […] The results are equal to or better than previously have been obtained with IV infusions of 40 mg/kg Apolipoprotein A-I Milano/phospholipids complex into Apo E knock-out mice (Shah et al., Circ., 97:780-5, 1998).
As noted above, data from three experimental series were pooled. Pooling of data is justified as only minor changes in the procedures were made (21 injections at 30 mg/kg over 42 and 21 days, respectively), and the diet regimens and sources of mice and polypeptide, respectively, were the same. In the first experiment S26 was substituted for Y26.

[3] = Pharmacokinetic analysis with monophasic decay model; assay type: in vivo
Description: Position 11, i.e., A, in the polypeptide of SEQ ID NO:4 can be substituted with other non-polar (hydrophobic) amino acids as well as other polar non-charged amino acids.

SEQ ID NO: 4/Y26: SEQ ID NO:4 with serine 26 replaced by tyrosine; iodinated version used for pharmacokinetics (EVRSKLEEWFAAFREFAEEFLARLKY; also: iodinated version used for pharmacokinetics)
Half-live ([1]; listed as SEQ ID NO: 4/Y26 peptide): 11.2 h
Half-live ([1]; modified to include a tyrosine at the C-terminus): about 11 hours
Half-live ([1]; which was modified to have a Y residue at the C-terminus): about 11.2 hours
distribution volume relative to plasma volume ([1]; IV): approximately twice as large as the plasma volume
Correlation ([1]; IV, 0-2.5 hours): −0.95
Half-live, first phase ([1]; IV, 0-2.5 hours): 4.5 h
Clearance ([1]; IV, 2.5-24 hours): 1.2 mL/h/kg
Half-live, terminal (second phase) ([1]; IV, 2.5-24 hours): 33.7 h
Volume of distribution ([1]; IV, 2.5-24 hours): 0.0557 L/kg
Half-live, terminal (second phase) ([1]; IV, 2.5-24 hours, modified to include a tyrosine at the C-terminus): about 34 hours
Half-live, terminal (second phase) ([1]; IV, 2.5-24 hours, which was modified to have a Y residue at the C-terminus): approximately 34 hours
ABCA1-dependent cholesterol efflux (ABCA1): stimulated ABCA1 cholesterol efflux like the parent 26-mer polypeptide; also recorded: retained ABCA1-dependent cholesterol efflux activity
antiatherosclerotic effect (whole aorta and aortic root/sinus) [2]: significant antiatherosclerotic effects

CC(C)C[C@H](NC(=O)[C@H](Cc1ccccc1)NC(=O)[C@H](CCC(=O)O)NC(=O)[C@H](CCC(=O)O)NC(=O)[C@H](C)NC(=O)[C@H](Cc1ccccc1)NC(=O)[C@H](CCC(=O)O)NC(=O)[C@H](CCCNC(=N)N)NC(=O)[C@H](Cc1ccccc1)NC(=O)[C@H](C)NC(=O)[C@H](Cc1ccc(O)cc1)NC(=O)[C@H](Cc1ccccc1)NC(=O)[C@H](Cc1c[nH]c2ccccc12)NC(=O)[C@H](CCC(=O)O)NC(=O)[C@H](CCC(=O)O)NC(=O)[C@H](CC(C)C)NC(=O)[C@H](CCCCN)NC(=O)[C@H](CO)NC(=O)[C@H](CCCNC(=N)N)NC(=O)[C@@H](NC(=O)[C@@H](N)CCC(=O)O)C(C)C)C(=O)N[C@@H](C)C(=O)N[C@@H](CCCNC(=N)N)C(=O)N[C@@H](CC(C)C)C(=O)N[C@@H](CCCCN)C(=O)N[C@@H](CO)C(=O)O [A11>Y11] (H-EVRSKLEEWFYAFREFAEEFLARLKS-OH)
pharmacokinetic properties compared to parent polypeptide [3]: identical pharmacokinetic properties
